Our source for the EC50 values is patent US20180362632A1 (published 2018).

Substitutions are numbered along the chain they refer to. Values joined by “and” are separate entries in the source; they are usually repeats but may differ in a detail not shown here. Equal values may be shown once. Read-outs that look alike come from different tables or passages of the source.

The target in experiment [1] is T1, recombinant human GM-CSF protein (human, UniProt P04141 18-144). Nature of the experiment: ELISA.
Experiment [2] has as its target T1, recombinant human GM-CSF protein. Nature of the experiment: ELISA. This is another data set of the same source. For orientation: An ELISA detects its analyte on a solid surface through an enzyme-linked reagent.

T1 sequence (P04141 18-144): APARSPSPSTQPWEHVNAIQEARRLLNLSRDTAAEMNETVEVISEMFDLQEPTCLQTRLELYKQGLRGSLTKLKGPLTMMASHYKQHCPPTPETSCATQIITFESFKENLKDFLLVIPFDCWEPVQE

B1: 50C5 chimera (antibody, V domains shown)
VH: QVQLQQSAAELVRPGASVKMSCKASGYIFTPYSIHWIKQRPGQGLEWIGYINPSTGYIEYNQHFKDRTTLTADKSSSTAYMQLRSLTSEDSAVYYCARGGDYEGYFDYWGQGTTLTVSS
VL: DIQMTQSPDSLSASVGETVTITCRLNENIYSFLAWYQQRQGKSPQLLVYNAETLAEDVPSRFSGSGSGTQFSLKISSLQTDDFGTYYCQQHYGTPYTFGGGTNLEIE
In the case of B1, the EC50 (commonly the concentration giving half of the maximal effect) in experiment [1] was 0.464 nM and 0.483 nM; in experiment [2] it was 0.547 nM.

B2: Hu50C5-13 (antibody, V domains shown)
VH: EVQLVQSGAEVKKPGSSVKVSCKASGYIFSPYSIHWVRQAPGQGLEWIGYINPSTGYIEYNQHFKDRVTITADKSTSTAYMELRSLRSEDTAVYYCARGGDYEGYFDYWGQGTTVTVSS
VL: DIQMTQSPSSLSASVGDRVTITCRLNENIYSFLAWYQQKPGKAPKLLVYNAETLAEDVPSRFSGSGSGTDFTLTISSLQPEDFATYYCQQHYGTPYTFGGGTKVEIK
As for B2, in experiment [1], the EC50 was determined as 3.52 nM.

B3: Hu50C5-11 (antibody, V domains shown)
VH: B2 VH
VL: B2 VL with V48I, D57G
On to B3, for which, in experiment [1], the EC50 is 0.462 nM.

B4: Hu50C5-21 (antibody, V domains shown)
VH: B2 VH with S30T, V68T, I70L
VL: B2 VL with V48I, D57G
For the molecule B4, in experiment [2], the EC50 was found to be 0.339 nM.

B5: Hu50C5-5 (antibody, V domains shown)
VH: B2 VH with Y27G, I28T, I48M
VL: B2 VL with A43S, D70Q
Take B5: in experiment [1], the EC50 stood at 0.534 nM.

B6: Hu50C5-10 (antibody, V domains shown)
VH: B2 VH with I48M
VL: B2 VL with A43S, D70Q
B6: in experiment [1], the EC50 came to 1.03 nM.

B7: Hu50C5-14 (antibody, V domains shown)
VH: B2 VH
VL: B2 VL with D70Q
With B7, the EC50 in experiment [1] amounted to 1.94 nM.

B8: Hu50C5-15 (antibody, V domains shown)
VH: B2 VH
VL: B2 VL with A43S, D70Q
In the case of B8, the EC50 in experiment [2] is 2.72 nM.

B9: Hu50C5-12 (antibody, V domains shown)
VH: B2 VH
VL: B2 VL with D57G
For the molecule B9, in experiment [1], the EC50 is 3.24 nM.

B10: Hu50C5-19 (antibody, V domains shown)
VH: B2 VH with V68T, I70L
VL: B2 VL with D70Q
For B10, in experiment [2], the EC50 came to 0.272 nM.

B11: Hu50C5-2 (antibody, V domains shown)
VH: B2 VH with Y27G, I28T, I48M
VL: B2 VL with D57G
B11: the EC50 in experiment [1] stood at 2.19 nM.

B12: Hu50C5-18 (antibody, V domains shown)
VH: B2 VH with V68T, I70L
VL: B2 VL
As to B12, the EC50 in experiment [2] turned out to be 0.612 nM.

B13: Hu50C5-7 (antibody, V domains shown)
VH: B2 VH with I48M
VL: B2 VL with D57G
For B13, the EC50 in experiment [1] was found to be 0.844 nM.

B14: Hu50C5-17 (antibody, V domains shown)
VH: B2 VH with V68T, I70L
VL: B2 VL with D57G
In the case of B14, in experiment [2], the 50% effective concentration (EC50) amounted to 0.215 nM.

B15: Hu50C5-3 (antibody, V domains shown)
VH: B2 VH with Y27G, I28T, I48M
VL: B2 VL
For B15, in experiment [1], the EC50 came to 1.85 nM.

B16: Hu50C5-16 (antibody, V domains shown)
VH: B2 VH with V68T, I70L
VL: B2 VL with V48I, D57G
On to B16, for which, in experiment [2], the 50% effective concentration (EC50) was found to be 0.46 nM.

B17: Hu50C5-9 (antibody, V domains shown)
VH: B2 VH with I48M
VL: B2 VL with D70Q
As to B17, the EC50 in experiment [1] was found to be 0.568 nM.

B18: Hu50C5-8 (antibody, V domains shown)
VH: B2 VH with I48M
VL: B2 VL
As to B18, the 50% effective concentration (EC50) in experiment [1] is 0.438 nM.

B19: Hu50C5-4 (antibody, V domains shown)
VH: B2 VH with Y27G, I28T, I48M
VL: B2 VL with D70Q
Take B19: the EC50 in experiment [1] is 1.18 nM.

B20: Hu50C5-1 (antibody, V domains shown)
VH: B2 VH with Y27G, I28T, I48M
VL: B2 VL with V48I, D57G
Turning to B20, the EC50 in experiment [1] is 2.75 nM.

B21: Hu50C5-23 (antibody, V domains shown)
VH: B2 VH with S30T, V68T, I70L
VL: B2 VL
On to B21, for which the EC50 in experiment [2] is 0.356 nM.

B22: Hu50C5-22 (antibody, V domains shown)
VH: B2 VH with S30T, V68T, I70L
VL: B2 VL with D57G
As to B22, the EC50 in experiment [2] is 0.889 nM.

B23: Hu50C5-24 (antibody, V domains shown)
VH: B2 VH with S30T, V68T, I70L
VL: B2 VL with D70Q
As to B23, in experiment [2], the EC50 amounted to 0.305 nM.

B24: Hu50C5-20 (antibody, V domains shown)
VH: B2 VH with V68T, I70L
VL: B2 VL with A43S, D70Q
For B24, the EC50 in experiment [2] worked out at 0.305 nM.

B25: Hu50C5-6 (antibody, V domains shown)
VH: B2 VH with I48M
VL: B2 VL with V48I, D57G
Turning to B25, the EC50 in experiment [1] was 0.345 nM.
